Tests used:
[1] = human serum and full blood (EDTA), room temperature, 30 min and 2 hours; CNP-22 EIA; n = 12
Description: We studied 12 male volunteers (mean age 29 ± 2 years, normal weight, no drug therapy, no history of cardiovascular or other diseases, 3 smokers). From all investigated subjects informed consent was obtained. Triplets of fasting blood samples were taken from all volunteers at 8 o’clock in the morning. Blood samples were collected using the 7.5 ml S-Monovette® collection system (Sarstedt, Nümbrecht, Germany) containing either clotting activator (Kaolin) for serum samples, sodium-citrate for plasma samples or Potassium–EDTA for full blood samples. All samples for baseline analyses were immediately centrifuged at 2,000 × g for 10 min at 4°C and supernatant was stored at −70°C until analysis. For mid-term analyses (30 minutes or 2 hours), plasma samples were centrifuged at 2,000 × g for 10 min at room temperature. Supernatant was removed and stored at room temperature for 30 min or 2 hours. Following blood clotting, serum samples were processed identically to plasma samples. Supernatant was saved and also stored at room temperature for 30 min or 2 hours. Full blood samples were stored at room temperature without centrifugation. […] The concentration of CNP was measured using the CNP-22 EIA Kit (#EK-012-03, Phoenix Pharmaceuticals, Karlsruhe, Germany) according to the manufacturer’s protocol. […] Data were analyzed using MedCalc® for Windows, Version 10.0.1.0 (MedCalc Software, Mariakerke, Belgium).

[2] = unknown storage conditions of blood samples; ref manufacturer's protocol; cited from earlier work
Description: Consequently, the stability of the CNP peptide is most likely not affected by any delay in sample processing for at least two hours. ProCNP has already been reported (manufacturer’s protocol, unknown storage conditions of blood samples) to be stable for at least 2.5 hours. Accordingly, our experiments confirmed the stability of NT-proCNP even at room temperature.

For C-type natriuretic peptide [CNP], the “stability of CNP in serum and full blood samples” value [1] was “stable in serum and in full blood samples for at least two hours at room temperature”.

B1: ProCNP: pro-peptide of CNP, reported stable per the manufacturer's protocol (peptide, UniProt P23582 24-126, looked up)
pro-form: KPGAPPKVPRTPPAEELAEPQAAGGGQKKGDKAPGGGGANLKGDRSRLLRDLRVDTKSRAAWARLLQEHPNARKYKGANKKGLSKGCFGLKLDRIGSMSGLGC
modifications: pro-form
In the case of B1, the “time for which ProCNP is stable” value [2] is given as “at least 2.5 hours”.
